Here are results for one molecule from PMC7035229 (Acta Neuropathologica, 2019).

The target in assay [1] is T1, soluble aggregates of tau (STAs) (human, UniProt P10636-8 1-441).
T1 construct: also called soluble Tau aggregates; SPAs (as a member of the group)
As to the kind of experiment: ELISA. The settings on record: both partners purified. In general terms: ELISA stands for enzyme-linked immunosorbent assay.

Assay [2] deals with T2, soluble aggregates of Aβ_(1–42) (SBAs) (human, UniProt P05067 672-713).
T2 construct: also called soluble Aβ aggregates; SPAs (as a member of the group)
As to the kind of experiment: ELISA. Particulars: both partners purified.

T1 sequence (P10636 other isoform, or with tags, fused parts or gaps): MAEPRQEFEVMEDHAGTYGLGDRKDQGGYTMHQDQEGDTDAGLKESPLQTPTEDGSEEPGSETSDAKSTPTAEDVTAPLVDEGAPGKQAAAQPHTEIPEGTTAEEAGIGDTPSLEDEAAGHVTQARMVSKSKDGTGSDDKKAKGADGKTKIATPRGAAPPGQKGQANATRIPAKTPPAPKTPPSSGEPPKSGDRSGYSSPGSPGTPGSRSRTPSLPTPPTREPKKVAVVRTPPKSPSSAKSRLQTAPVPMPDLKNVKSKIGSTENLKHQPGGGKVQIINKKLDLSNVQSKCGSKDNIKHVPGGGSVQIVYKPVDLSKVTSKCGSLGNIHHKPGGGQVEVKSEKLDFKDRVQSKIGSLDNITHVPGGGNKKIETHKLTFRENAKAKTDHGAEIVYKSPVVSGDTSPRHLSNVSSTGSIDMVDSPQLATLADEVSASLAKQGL

B1: recombinant murine prion protein PrP_(23–231) (domain or fragment)
chain: not shown
notes: also called full-length PrP
On to B1, for which the binding result in assay [1] and in assay [2] was “binds” in each case.
